Assay results published in patent US20250163127A1 (published 2025).
Where a chain is given by its changes, count along the chain named.

T1: human TIGIT (human, UniProt Q495A1)
T1 sequence: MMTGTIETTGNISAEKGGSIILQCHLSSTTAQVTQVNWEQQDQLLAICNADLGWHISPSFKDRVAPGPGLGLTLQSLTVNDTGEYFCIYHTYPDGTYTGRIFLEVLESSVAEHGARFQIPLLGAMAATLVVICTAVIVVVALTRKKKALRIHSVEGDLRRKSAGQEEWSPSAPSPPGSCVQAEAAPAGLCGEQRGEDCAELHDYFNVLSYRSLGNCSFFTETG

T2: human CD80 (human)
T2 chain: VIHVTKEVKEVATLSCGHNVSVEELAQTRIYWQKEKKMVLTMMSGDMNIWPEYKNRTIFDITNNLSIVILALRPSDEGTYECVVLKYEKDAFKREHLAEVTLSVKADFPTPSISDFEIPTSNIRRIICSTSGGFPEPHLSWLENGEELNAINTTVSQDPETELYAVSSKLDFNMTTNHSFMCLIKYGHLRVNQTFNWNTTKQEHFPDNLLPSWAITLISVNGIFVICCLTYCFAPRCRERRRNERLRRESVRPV

T3: CD80 (human)
T3 chain: T2 chain

B1: PD-L2 1417-CD80 2616 (other)
chain: LFTVTVPKELYIIEQGSNVTLECNFDTGSHVNLGAITASLQKVENDASPHRERATLLEEQLPLGRALFHIPQVQVRDEGQYRCIIIYGDAWDYKYLTLKVKAGSGGSGGGGSGGGGSVIHVTKEVKEVATLSCGHNVSLEELAQTRIYWQKGKKMVLTMMSGDMNIWPEYKNRTIFDITNNLSIVILDPRPSDEGTYECVVLKYEKDAFKREHLAEVDYKDDDDKHHHHHH
B2: PD-L2 1417-CD80 2617 (other)
chain: B1 chain with L139V, K171E
B3: PD-L2 1417-IL16 (other)
chain: LFTVTVPKELYIIEQGSNVTLECNFDTGSHVNLGAITASLQKVENDASPHRERATLLEEQLPLGRALFHIPQVQVRDEGQYRCIIIYGDAWDYKYLTLKVKAGSGGSGGGGSGGGGSSAASASAASDVSVESTAEATVCTVTLEKMSAGLGFSLEGGKGSLHGDKPLTINRIFKGAASEQSETVQPGDEILQLGGTAMQGLTRFEAWNIIKALPDGPVTIVIRRKSLQSKETTAAGDSDYKDDDDKHHHHHH
B4: CD80 2616-PD-L2 1417 (other)
chain: VIHVTKEVKEVATLSCGHNVSLEELAQTRIYWQKGKKMVLTMMSGDMNIWPEYKNRTIFDITNNLSIVILDPRPSDEGTYECVVLKYEKDAFKREHLAEVGSGGSGGGGSGGGGSLFTVTVPKELYIIEQGSNVTLECNFDTGSHVNLGAITASLQKVENDASPHRERATLLEEQLPLGRALFHIPQVQVRDEGQYRCIIIYGDAWDYKYLTLKVKADYKDDDDKHHHHHH
B5: CD80 2617-PD-L2 1417 (other)
chain: B4 chain with L22V, K54E
B6: CD155 665-CD58 3650-Fc (Fc fusion)
chain: WPPPGTGDVVVQAPTQVSGFLGDSVTLPCYLQVPNMEVTHVSQLTWARHGESGSMAVFHQTQGPWYAESKRLEFVAARLGAELRNASLRVFGLRAEDEGNYTCQFVTFPQRSRSVDIWLRVLGGGGSGGGGSGGGGSSQQIYGVVYGNVTFHVPSNVPLKEVLWKKQKDKVAELENSEFRAFSSFKNRVYLDTVSGSLTIYNLTSSDEDEYEMESPNITDTMKFFLYVLESGSGGGGSEPKSSDKTHTCPPCPAPEAEGAPSVFLFPPKPKDTLMISRTPEVTCVVVDVSHEDPEVKFNWYVDGVEVHNAKTKPREEQYNSTYRVVSVLTVLHQDWLNGKEYKCKVSNKALPAPIEKTISKAKGQPREPQVYTLPPSRDELTKNQVSLTCLVKGFYPSDIAVEWESNGQPENNYKTTPPVLDSDGSFFLYSKLTVDKSRWQQGNVFSCSVMHEALHNHYTQKSLSLSPG
B7: PD-L1 303-CTLA-4 3037-Fc (SEQ ID NO 3523) (Fc fusion)
chain: FTVTVPKDLYVVEYGSNMTIECKFPVEKQLDLAALIVYWEMEGKDIIQFVHGEEDQKAQHSSYRQRARLLKDQLSLGNAALQITDVKLQDAGVYRCMISYGGGADYKRITVKVNAGSGGSGGGGSGGGGSKAMHVAQPAVVLASSRGIASFVCEYASPWKATEVRVTVLRQADSQVTEVCAATYMMGSELTFPDDSICTGTSSGNQVNLTIRGLRAMDTGLYICKVEQMYPPPYLLGIGNGTQIYVIDPEPCPDSDGGGGSGSGGGGSEPKSSDKTHTCPPCPAPEAEGAPSVFLFPPKPKDTLMISRTPEVTCVVVDVSHEDPEVKFNWYVDGVEVHNAKTKPREEQYNSTYRVVSVLTVLHQDWLNGKEYKCKVSNKALPAPIEKTISKAKGQPREPQVYTLPPSRDELTKNQVSLTCLVKGFYPSDIAVEWESNGQPENNYKTTPPVLDSDGSFFLYSKLTVDKSRWQQGNVFSCSVMHEALHNHYTQKSLSLSPG
B8: CD58 3650-CD155 665-Fc (Fc fusion)
chain: SQQIYGVVYGNVTFHVPSNVPLKEVLWKKQKDKVAELENSEFRAFSSFKNRVYLDTVSGSLTIYNLTSSDEDEYEMESPNITDTMKFFLYVLESGGGGSGGGGSGGGGSWPPPGTGDVVVQAPTQVSGFLGDSVTLPCYLQVPNMEVTHVSQLTWARHGESGSMAVFHQTQGPWYAESKRLEFVAARLGAELRNASLRVFGLRAEDEGNYTCQFVTFPQRSRSVDIWLRVLGSGGGGSEPKSSDKTHTCPPCPAPEAEGAPSVFLFPPKPKDTLMISRTPEVTCVVVDVSHEDPEVKFNWYVDGVEVHNAKTKPREEQYNSTYRVVSVLTVLHQDWLNGKEYKCKVSNKALPAPIEKTISKAKGQPREPQVYTLPPSRDELTKNQVSLTCLVKGFYPSDIAVEWESNGQPENNYKTTPPVLDSDGSFFLYSKLTVDKSRWQQGNVFSCSVMHEALHNHYTQKSLSLSPG
B9: PD-L1 303-CTLA-4 3495-Fc (Fc fusion)
chain: FTVTVPKDLYVVEYGSNMTIECKFPVEKQLDLAALIVYWEMEGKDIIQFVHGEEDQKAQHSSYRQRARLLKDQLSLGNAALQITDVKLQDAGVYRCMISYGGGADYKRITVKVNAGSGGSGGGGSGGGGSKAMHVAQPAVVLASSRGIASFVCEYASPGKATEVRVTVLRQADSQVTEVCAATYMMGNELTFLDDSICTGTSSGNQVNLTIQGLRAMDTGLYICKVELMYPPPYYLGIGNGTQIYVIDPEPSPDSDQGGGGSGSGGGGSEPKSSDKTHTCPPCPAPEAEGAPSVFLFPPKPKDTLMISRTPEVTCVVVDVSHEDPEVKFNWYVDGVEVHNAKTKPREEQYNSTYRVVSVLTVLHQDWLNGKEYKCKVSNKALPAPIEKTISKAKGQPREPQVYTLPPSRDELTKNQVSLTCLVKGFYPSDIAVEWESNGQPENNYKTTPPVLDSDGSFFLYSKLTVDKSRWQQGNVFSCSVMHEALHNHYTQKSLSLSPG
B10: PD-L1 303-CD155 665-CTLA-4 3037-Fc (Fc fusion)
chain: FTVTVPKDLYVVEYGSNMTIECKFPVEKQLDLAALIVYWEMEGKDIIQFVHGEEDQKAQHSSYRQRARLLKDQLSLGNAALQITDVKLQDAGVYRCMISYGGGADYKRITVKVNAGGGGSGGGGSGGGGSWPPPGTGDVVVQAPTQVSGFLGDSVTLPCYLQVPNMEVTHVSQLTWARHGESGSMAVFHQTQGPWYAESKRLEFVAARLGAELRNASLRVFGLRAEDEGNYTCQFVTFPQRSRSVDIWLRVLGGGGSGGGGSGGGGSKAMHVAQPAVVFASSHGIASFVCEYASPWKATEVRVTVLRQADSQVTEVCAATYMTGNELTFLDDSICTGTSSGNQVNLTIQGLRAMDTGLYICKVEQMYPPPYLLGIGNGTQIYVIDPEPCPDSDGSGGGGSEPKSSDKTHTCPPCPAPEAEGAPSVFLFPPKPKDTLMISRTPEVTCVVVDVSHEDPEVKFNWYVDGVEVHNAKTKPREEQYNSTYRVVSVLTVLHQDWLNGKEYKCKVSNKALPAPIEKTISKAKGQPREPQVYTLPPSRDELTKNQVSLTCLVKGFYPSDIAVEWESNGQPENNYKTTPPVLDSDGSFFLYSKLTVDKSRWQQGNVFSCSVMHEALHNHYTQKSLSLSPG
B11: CD155 665-ICOSL 2264-ICOSL 2264-CD155 665 (other)
chain: WPPPGTGDVVVQAPTQVSGFLGDSVTLPCYLQVPNMEVTHVSQLTWARHGESGSMAVFHQTQGPWYAESKRLEFVAARLGAELRNASLRVFGLRAEDEGNYTCQFVTFPQRSRSVDIWLRVLGGGGSGGGGTGGGGSDTQEKEVRAMVGSDVELSCACPEGSRFDLNDVYVYWQTSESKTVVTYHIPQHSSLEYVDSRYRNRALMSPAGMLRGDFSLRLFNVTPQDEQKFHCLVLSRSLGFQEVLSVEVTLHVAANFSVGGGGSGGGGSGGGGSDTQEKEVRAMVGSDVELSCACPEGSRFDLNDVYVYWQTSESKTVVTYHIPQHSSLEYVDSRYRNRALMSPAGMLRGDFSLRLFNVTPQDEQKFHCLVLSRSLGFQEVLSVEVTLHVAANFSVGSGGSGGGGSGGGGSWPPPGTGDVVVQAPTQVSGFLGDSVTLPCYLQVPNMEVTHVSQLTWARHGESGSMAVFHQTQGPWYAESKRLEFVAARLGAELRNASLRVFGLRAEDEGNYTCQFVTFPQRSRSVDIWLRVLGSGGGGSDYKDDDDKHHHHHH

Assays:
human PD-1 [1] = target: T4, human PD-1 (human, UniProt Q15116); experiment: flow cytometry, CHO/PD-1 cells, 100 nM, anti-Flag
human CD28 [2] = target: T5, human CD28 (human, UniProt P10747); experiment: flow cytometry, Jurkat cells (endogenous CD28), 100 nM, anti-Flag
human CTLA-4 = human CTLA-4 (human); experiment: flow cytometry, CHO/CTLA-4 cells, 100 nM, anti-Flag
human PD-1 [3] = target: T4, human PD-1; experiment: flow cytometry, CHO/PD-1 cells, 100 nM, anti-FLAG-PE
CD2 = CD2 (Homo sapiens (Human), UniProt P06729); experiment: flow cytometry, CHO-CD2 cells
human TIGIT = target: T1, human TIGIT; experiment: flow cytometry, Jurkat/IL-2/TIGIT cells
PD-1 = PD-1 (human, UniProt Q15116); experiment: cell-based or functional assay
human CD80 = target: T2, human CD80; experiment: cell-based or functional assay
human CD28 [4] = target: T5, human CD28; experiment: flow cytometry, Expi-CD28 cells
human PD-1 [5] = target: T4, human PD-1; experiment: flow cytometry, Jurkat/IL-2/PD-1 cells
CD80 = target: T3, CD80; experiment: flow cytometry, CHO-CD80 cells

Chain of human CTLA-4 (human) (chain, as listed by the source): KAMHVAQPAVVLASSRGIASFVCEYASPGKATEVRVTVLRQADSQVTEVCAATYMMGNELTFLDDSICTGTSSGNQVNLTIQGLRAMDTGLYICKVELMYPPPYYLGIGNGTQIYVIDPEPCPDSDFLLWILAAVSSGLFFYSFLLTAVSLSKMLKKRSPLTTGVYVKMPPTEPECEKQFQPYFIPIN

Row | Binder | MFI (human PD-1 [1]) | MFI (human CD28 [2]) | MFI (human CTLA-4) | EC50 (human TIGIT) [nM] | also measured
1 | B1 | 20000 | 89.2 | 79.3 |  | 
2 | B2 | 13700 | 94.2 | 85 |  | 
3 | B3 |  |  |  |  | MFI (human PD-1 [3]): 19900
4 | B4 | 1520 | 92.2 | 82.5 |  | 
5 | B5 | 1390 | 110 | 75.5 |  | 
6 | B6 |  |  |  | 0.733 | EC50 (CD2): 0.845 nM
7 | B7 |  |  |  |  | % CD25 Hi FoxP3 + (PD-1): 44.2 % at 100 nM; % CD25 Hi FoxP3 + (human CD80): 44.2 % at 100 nM
8 | B8 |  |  |  | 1 | EC50 (CD2): 0.935 nM
9 | B9 |  |  |  |  | % CD25 Hi FoxP3 + (PD-1): 19.1 % at 100 nM; % CD25 Hi FoxP3 + (human CD80): 19.1 % at 100 nM
10 | B10 |  |  |  | 1.6 | EC50 (human CD28 [4]): 4.15 nM; EC50 (human PD-1 [5]): 1.3 nM; EC50 (CD80): 3.8 nM
11 | B11 |  |  |  | 2.3 | EC50 (human CD28 [4]): 3.39 nM
